Measurements reported in publication PMC5494190, “Structure of the Rpn13-Rpn2 complex provides insights for Rpn13 and Uch37 as anticancer targets” (Nature Communications, 2017).
No end group written: not given here. *: point of attachment. FITC‑N3 = fluorescein azide; Pent4ynoyl = C#CCCC(=O)*; AEEA = NCCOCCOCC(=O)O

B1: hRpn2 (940–953) (peptide)
chain: QEPEPPEPFEYIDD
notes: The author contributions say that peptides were synthesized for the DSF experiment, so the DSF sample may be a synthetic peptide of the same limits; also called hRpn2 peptide; hRpn2 fragment; source: E. coli BL21(DE3) pLysS, purified (Glutathione S-sepharose 4B, PreScission cleavage, Superdex75); not shown: GST, N-terminal, cleaved
B2: hRpn2 (944–953) (peptide)
peptide: PPEPFEYIDD
notes: source: synthetic peptide (Fmoc chemistry on Wang resin, HPLC purified)
B3: FITC-hRpn2 (940–953) (peptide)
peptide: {FITC‑N3-Pent4ynoyl-AEEA}-QEPEPPEPFEYIDD
notes: also called FITC-labelled hRpn2 probe; source: synthetic peptide (Fmoc solid-phase synthesis, click coupling to FITC-N3, HPLC purified)

Assays:
[1] = target: T1, hRpn13 (1–150), which includes the Pru domain (human, UniProt Q16186 1-150); assay: ITC; 25 °C; 200 μM hRpn2 peptide injected into 20 μM or 18 μM hRpn13 Pru in the cell; 20 mM sodium phosphate, 50 mM NaCl, 10 mM βME, pH 7.0; one-site fit; details: both partners purified
T1 construct: hRpn13/Adrm1, human, residues M1-L150 (Pru domain; N-terminal 19 and C-terminal 20 residues randomly coiled); Isotope-labelled (15N, 13C) in some NMR samples; also called hRpn13 Pru; hRpn13 Pru (1–150); not shown: His tag, N-terminal, cleaved
T1 sequence (Q16186 1-150): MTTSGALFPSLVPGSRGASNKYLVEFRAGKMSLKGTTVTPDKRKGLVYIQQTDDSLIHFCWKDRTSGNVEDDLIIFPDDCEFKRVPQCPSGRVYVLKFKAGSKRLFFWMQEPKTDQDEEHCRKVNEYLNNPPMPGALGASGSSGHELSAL

full-length hRpn13 = target: T2, full-length hRpn13 (human, UniProt Q16186 1-407); assay: fluorescence polarisation; 10 nM FITC-hRpn2 (940–953) with serially diluted full-length hRpn13; 20 mM sodium phosphate, 50 mM NaCl, pH 6.5; room temperature, 30 min; Hill slope model; also with 100 μM RA190 or 2% DMSO; details: both partners purified
T2 construct: hRpn13/Adrm1, human, full-length protein (Pru and DEUBAD domains); The preparation of the full-length protein is not described; it was not held on Talon resin by itself in the pull-down, so it probably carried no His tag; also called hRpn13 full-length protein; Adrm1; source: purified recombinant protein
T2 sequence (Q16186 whole entry, the tested form may be a part): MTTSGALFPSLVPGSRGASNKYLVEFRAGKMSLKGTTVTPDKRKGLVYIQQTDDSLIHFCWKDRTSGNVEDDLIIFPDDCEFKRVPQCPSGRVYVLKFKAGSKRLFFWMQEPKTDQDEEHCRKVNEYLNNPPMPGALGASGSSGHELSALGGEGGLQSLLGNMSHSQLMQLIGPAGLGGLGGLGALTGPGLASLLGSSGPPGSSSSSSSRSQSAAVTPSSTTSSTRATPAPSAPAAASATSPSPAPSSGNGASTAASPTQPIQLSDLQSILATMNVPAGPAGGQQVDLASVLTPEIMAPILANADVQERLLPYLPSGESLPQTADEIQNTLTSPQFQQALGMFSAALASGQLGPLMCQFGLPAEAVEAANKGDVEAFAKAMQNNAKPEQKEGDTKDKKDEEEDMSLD

Binder | Kd [1] [nM] | Kd (full-length hRpn13) [nM]
B1 | 27 ± 10 | –
B2 | 1960 ± 220 | –
B3 | – | 14.7
